Reference: the Immune Epitope Database (IEDB)

What was measured:
[1] = biological target: HLA-A*23:01; assay: IEDB peptide-MHC binding, purified MHC/competitive/radioactivity; filed as Kd, often an IC50 or EC50 that approximates it; ≥ and ≤ were set here for values at or beyond the usual limits of such assays
[2] = biological target: HLA-A*30:02; assay: as above
[3] = biological target: HLA-A*01:01; assay: as above
[4] = biological target: HLA-A*24:02; assay: as above
[5] = biological target: HLA-A*29:02; assay: as above
[6] = biological target: HLA-A*26:01; assay: as above
[7] = biological target: HLA-A*30:01; assay: as above
[8] = biological target: HLA-B*40:01; assay: IEDB peptide-MHC binding, purified MHC/direct/fluorescence; filed as Kd, often an IC50 or EC50 that approximates it; ≥ and ≤ were set here for values at or beyond the usual limits of such assays
[9] = biological target: HLA-A*01:01; assay: as above
[10] = biological target: HLA-B*58:01; assay: as above
[11] = biological target: HLA-B*57:01; assay: as above
[12] = biological target: HLA-B*51:01; assay: IEDB peptide-MHC binding, purified MHC/competitive/fluorescence; filed as Kd, often an IC50 or EC50 that approximates it; ≥ and ≤ were set here for values at or beyond the usual limits of such assays
[13] = biological target: HLA-A*11:01; assay: IEDB peptide-MHC binding, purified MHC/competitive/radioactivity; filed as Kd, often an IC50 or EC50 that approximates it; ≥ and ≤ were set here for values at or beyond the usual limits of such assays
[14] = biological target: HLA-A*68:01; assay: as above
[15] = biological target: HLA-A*31:01; assay: as above; conditions: source organism: Vaccinia virus WR
[16] = biological target: HLA-A*03:01; assay: as above
[17] = biological target: HLA-A*33:01; assay: as above
[18] = biological target: HLA-B*44:02; assay: as above; conditions: source organism: Dengue virus 2 Jamaica/1409/1983
[19] = biological target: HLA-A*02:01; assay: IEDB peptide-MHC binding, purified MHC/direct/fluorescence; filed as Kd, often an IC50 or EC50 that approximates it; ≥ and ≤ were set here for values at or beyond the usual limits of such assays
[20] = biological target: HLA-B*15:01; assay: as above; conditions: source organism: Salmonella enterica subsp. enterica serovar Typhimurium
[21] = biological target: HLA-A*69:01; assay: as above
[22] = biological target: HLA-A*02:06; assay: IEDB peptide-MHC binding, purified MHC/competitive/radioactivity; filed as Kd, often an IC50 or EC50 that approximates it; ≥ and ≤ were set here for values at or beyond the usual limits of such assays; conditions: source organism: Vaccinia virus WR
[23] = biological target: HLA-A*02:02; assay: as above; conditions: source organism: Vaccinia virus WR
[24] = biological target: HLA-A*02:03; assay: as above; conditions: source organism: Vaccinia virus WR
[25] = biological target: HLA-A*11:01; assay: IEDB peptide-MHC binding, purified MHC/direct/fluorescence; filed as Kd, often an IC50 or EC50 that approximates it; ≥ and ≤ were set here for values at or beyond the usual limits of such assays
[26] = biological target: HLA-A*02:01; assay: IEDB peptide-MHC binding, purified MHC/competitive/fluorescence; ≥ and ≤ were set here for values at or beyond the usual limits of such assays
[27] = biological target: HLA-A*24:02; assay: as above
[28] = biological target: HLA-B*46:01; assay: IEDB peptide-MHC binding, purified MHC/competitive/fluorescence; filed as Kd, often an IC50 or EC50 that approximates it; ≥ and ≤ were set here for values at or beyond the usual limits of such assays
[29] = biological target: HLA-B*07:02; assay: IEDB peptide-MHC binding, purified MHC/direct/fluorescence; filed as Kd, often an IC50 or EC50 that approximates it; ≥ and ≤ were set here for values at or beyond the usual limits of such assays; conditions: source organism: Mycobacterium avium 104
[30] = source organism: Dengue virus 4 Philippines/H241/1956
[31] = source organism: Dengue virus 3 Martinique/1243/1999
[32] = source organism: Dengue virus 4 Dominica/814669/1981
[33] = source organism: SARS coronavirus Tor2
[34] = source organism: Vaccinia virus WR
[35] = source organism: Mammarenavirus guanaritoense
[36] = source organism: Burkholderia mallei
[37] = source organism: Dengue virus 1 Brazil/97-11/1997
[38] = source organism: Salmonella enterica subsp. enterica serovar Typhimurium
[39] = source organism: Dengue virus 2 Jamaica/1409/1983
[40] = source organism: Mammarenavirus juninense
[41] = source organism: Zaire ebolavirus
[42] = source organism: Cryptosporidium hominis
[43] = source organism: Hyphomonas neptunium
[44] = source organism: Yellow fever virus
[45] = source organism: Mammarenavirus whitewaterense
[46] = source organism: Sudan ebolavirus

With RHERGRPLLF the Kd [1, 30] was 248 nM.

VTTWENVPY gave a Kd [2, 31] of 10.9 nM and a Kd [3, 31] of 590 nM.

Work on DYQGKTVWF yielded a Kd [1, 30] of 805 nM and a Kd [4, 30] of 763 nM.

VTYKCPLLV gave a Kd [3, 32] of 2190 nM.

For LYIIKLVFLW, the Kd [1, 33] was 0.165 nM, the Kd [5, 33] was ≥ 31800 nM and the Kd [2, 33] was ≥ 85700 nM. The Kd [4, 33] was 20.9 nM, the Kd [3, 33] was 13600 nM and the Kd [6, 33] was 1170 nM.

Work on GNRGSTSFK yielded a Kd [7, 34] of 2.04 nM.

For ETENILTVLL, the Kd [3, 31] was 3840 nM and the Kd [6, 31] was 16200 nM.

In the case of KVKKLNRCA, the Kd [7, 34] is reported as 3.12 nM.

LEVPAMGVL gave a Kd ([8]; source organism: Mycobacterium tuberculosis) of 25 nM.

For SEFCDMLRL, the Kd [8, 35] was 84.2 nM.

In the case of KSSLEVYIY, the Kd ([9]; source organism: Orthohantavirus hantanense) is reported as 158 nM.

LAASVFFTF showed a Kd [10, 36] of 203 nM and a Kd [11, 36] of 2140 nM.

SYTQMCDHRL gave a Kd [4, 37] of 184 nM.

For FTSCELYHY, the Kd [1, 33] was ≥ 38100 nM, the Kd [5, 33] was 3.57 nM and the Kd [2, 33] was 365 nM. For the same sequence, the Kd [4, 33] was ≥ 35800 nM, the Kd [3, 33] was 1.73 nM and the Kd [6, 33] was 811 nM.

CPLVLDFII gave a Kd ([12]; source organism: Brucella abortus S19) of 323 nM.

With VMMSAPPAEY the Kd [1, 33] was ≥ 39900 nM, the Kd [5, 33] was 3.16 nM and the Kd [2, 33] was 4.31 nM. The Kd [4, 33] was ≥ 35600 nM, the Kd [3, 33] was 154 nM and the Kd [6, 33] was 9020 nM.

In the case of ALEVLMSPCR, the Kd [13, 34] is reported as 6330 nM, the Kd [5, 34] is reported as ≥ 38500 nM and the Kd [14, 34] is reported as 465 nM. For the same sequence, the Kd [15] was 42.4 nM, the Kd [16, 34] was 328 nM and the Kd [17, 34] was 254 nM.

Work on WFFDLPLPWT yielded a Kd [7, 31] of 16300 nM.

In the case of FPPEIINVI, the Kd ([12]; source organism: Variola virus) is reported as 213 nM.

LENLMWKQI gave a Kd [18] of 22.2 nM.

For GLIEEMASA, the Kd [19, 38] was 20 nM, the Kd [20] was 4500 nM and the Kd [21, 38] was ≥ 20900 nM.

Work on SVKCTHPLV yielded a Kd [7, 34] of 0.968 nM.

LGYPFAWFL showed a Kd [10, 38] of 102 nM, a Kd [19, 38] of 831 nM and a Kd [21, 38] of 307 nM.

With ITLVYKVYY the Kd [1, 33] was ≥ 57700 nM, the Kd [5, 33] was 1.64 nM and the Kd [2, 33] was 5.19 nM. The Kd [4, 33] was ≥ 77600 nM, the Kd [3, 33] was 44.9 nM and the Kd [6, 33] was 1640 nM.

MTSTRTIIL was tested, and the Kd [22] was 6790 nM, the Kd [23] was 1340 nM and the Kd [7, 34] was 267 nM. The Kd [24] was 840 nM.

Sequence RLKDYQHFV has a Kd [7, 34] of 0.394 nM.

EVKSCHWPK gave a Kd [7, 39] of 166 nM, a Kd [14, 39] of 70.6 nM and a Kd [17, 39] of 7.23 nM.

With RTLAKEGIK the Kd [7, 39] was 217 nM and the Kd [16, 39] was 30 nM.

Sequence TYQNKVVKV has a Kd [1, 31] of 6520 nM.

KQRLTNLEK was tested, and the Kd [7, 34] was 0.951 nM.

FEKEGYSLV was tested, and the Kd ([8]; source organism: Influenza A virus (A/Netherlands/458/98 (H3N2))) was 118 nM.

For YTRVLKPSV, the Kd [7, 34] was 738 nM.

AICSAVPSHW gave a Kd [18] of 181 nM.

Sequence KVKWLQNSV has a Kd ([7]; source organism: Vaccinia virus Copenhagen) of 0.497 nM.

In the case of STRVGMGEA, the Kd [7, 37] is reported as 5.02 nM.

For TPKGPKVKY, the Kd ([25]; source organism: SARS-CoV1) was ≥ 46100 nM.

With HAFSSLLSG the Kd [7, 34] was 1110 nM.

LVIASLPLF showed a Kd [1, 40] of 19.1 nM, a Kd [5, 40] of 1210 nM and a Kd [4, 40] of 484 nM.

YYMATLKNVT showed a Kd [4, 30] of 1540 nM.

AFWETKKNL was tested, and the IC50 [26, 41] was ≥ 242000 nM and the IC50 [27, 41] was 2480 nM.

With PFARLLNLS the IC50 [26, 41] was ≥ 309000 nM and the IC50 [27, 41] was 15800 nM.

With MSFSDTFEM the Kd ([28]; source organism: Cryptosporidium parvum Iowa II) was 205 nM, the Kd [10, 42] was 0.6 nM and the Kd [11, 42] was 55.3 nM.

In the case of MRTNFLIKF, the IC50 [26, 41] is reported as ≥ 673000 nM and the IC50 [27, 41] is reported as 4170 nM.

With ALTPPFHPY the Kd [19, 43] was 9000 nM and the Kd [21, 43] was ≥ 20000 nM.

Sequence RVFNEYGFV has a Kd [7, 34] of 142 nM.

With KDLISYGGGW the Kd [18] was 310 nM.

For VTRKHMILV, the Kd [7, 30] was 19.4 nM.

In the case of TAVDFGNSY, the Kd [28, 44] is reported as 116 nM.

For AGVLWDVPSP, the Kd [7, 39] was 11900 nM.

YWVSNASGNI showed a Kd [1, 39] of 1330 nM.

In the case of DYMTSMKRF, the Kd [1, 37] is reported as 791 nM and the Kd [4, 37] is reported as 214 nM.

NSRHNAQHK was tested, and the Kd [9, 38] was ≥ 20000 nM.

AIRAGYSIV was tested, and the Kd [22] was 8060 nM, the Kd [23] was 1200 nM and the Kd [7, 34] was 1.42 nM. The Kd [24] was 0.211 nM.

LLQFIVFLL was tested, and the Kd [1, 45] was 18800 nM, the Kd [5, 45] was ≥ 23400 nM and the Kd [4, 45] was ≥ 77500 nM.

Sequence GLAWIPYFG has an IC50 [26, 41] of 134 nM and an IC50 [27, 41] of 62600 nM.

In the case of LTLKGTSYK, the Kd [25, 44] is reported as 5.6 nM.

RGRIGRNPA was tested, and the Kd [7, 30] was 32.3 nM.

For ILPWTKISE, the IC50 [26, 34] was ≥ 247000 nM and the IC50 [27, 34] was 33100 nM.

In the case of IDNNTFVRL, the IC50 [26, 46] is reported as ≥ 149000 nM and the IC50 [27, 46] is reported as 67900 nM.

VSSWEEVPY gave a Kd [2, 37] of 1860 nM and a Kd [3, 37] of 269 nM.

WFFDLPLPW was tested, and the Kd [1, 31] was 24 nM and the Kd [4, 31] was 62.2 nM.

In the case of QQICSNFKI, the Kd [1, 35] is reported as 98.8 nM, the Kd [5, 35] is reported as 3770 nM and the Kd [4, 35] is reported as 13100 nM.

YTDFPCQYV gave a Kd ([3]; source organism: Homo sapiens) of 1.8 nM.

In the case of ETFLQSPPI, the IC50 [26, 46] is reported as ≥ 143000 nM and the IC50 [27, 46] is reported as 13900 nM.

With KGKRALTPPV the Kd [7, 32] was 12.4 nM.

Work on HTAITQVRNL yielded a Kd [6, 30] of 2270 nM.

LTSRATWAK was tested, and the Kd [13, 39] was 44.8 nM, the Kd [7, 39] was 176 nM and the Kd [16, 39] was 58.6 nM.

In the case of TPKFTRMVV, the Kd ([12]; source organism: Mycobacterium tuberculosis C) is reported as ≥ 20000 nM and the Kd [29] is reported as 104 nM.
